Test results as given in the supplement of paper PMC12042874.
± gives the uncertainty stated by the source.

Assay: amyloid nucleation score (Sup35N fusion, yeast selection) (log enrichment); library NNK3; higher = more nucleation; inactive = no reads after selection
How it was run: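 Peptides of 20 random codons, each fused to Sup35N, were expressed in psi-negative yeast. Cells were induced with 100 μM copper sulfate for 24 hours and grown 7 days at 30°C on medium lacking adenine and uracil, and plasmid inserts before and after selection were Illumina-sequenced. Nucleation scores are DiMSum log enrichments of output over input reads, centred on the mode score of non-aggregating sequences, and sequences under 100 input reads were excluded.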

TVHAYLFCGTAVMTVRSSVV
amyloid nucleation score: inactive

VCFGWSNSFSAWT
amyloid nucleation score: inactive

FVGSLLGKSKFLGLHCCKEV
amyloid nucleation score: -0.08 ± 0.66

TCFKM
amyloid nucleation score: inactive

LANFHDITWWTWMTSHTGGS
amyloid nucleation score: inactive

YYDCIALFNSKQGSYLHYWY
amyloid nucleation score: inactive

GNLNGILFRISRQKEM
amyloid nucleation score: inactive

RYMFVVRTMPV
amyloid nucleation score: inactive

IQYLLLLSTTARFLWKCFSL
amyloid nucleation score: 0.37 ± 0.28

TLFFSNDRVRFGRSTSRCHM
amyloid nucleation score: inactive

VFVMPDDNVC
amyloid nucleation score: inactive

STMDRSVKVVGPSSRPEGSV
amyloid nucleation score: inactive

SFKMSVVAGVRTLGIFVWVF
amyloid nucleation score: inactive

EFCVYMSNGGKNLRTRTWAQ
amyloid nucleation score: 0.54 ± 0.31

SRLNFVCRGGSSAVFRRKAH
amyloid nucleation score: inactive

IWTDDWFFVAVSDGKVSRLV
amyloid nucleation score: inactive

GDCCHMADKTGGGTNRQIYH
amyloid nucleation score: inactive

FVLSMECSSRSSPSHTRDCA
amyloid nucleation score: -0.083 ± 0.33

HVILICLSFYTKFICPIPEV
amyloid nucleation score: inactive

ASGFLYSSSHLERNKLVNKF
amyloid nucleation score: inactive

EHYVDCVGDVAVRDVLVGAS
amyloid nucleation score: inactive

DITAG
amyloid nucleation score: inactive

CDYIKAKSVTDVCGNP
amyloid nucleation score: inactive

TVFCLVKFRLEFYVTMPEYC
amyloid nucleation score: inactive

RFRVLTYIISYSFSFCHHVW
amyloid nucleation score: 0.356 ± 0.27

TMSLTDYLCGCSWFWCKTSR
amyloid nucleation score: inactive

FEIRLFISGQDQAHGCCPWY
amyloid nucleation score: inactive

IGEPCLWNSV
amyloid nucleation score: inactive

LPLADLKGMASASFKDGKVF
amyloid nucleation score: inactive

WVFSWKMHRSKSKYRSKYLP
amyloid nucleation score: inactive

TYGGMSQSNLLRWCCFAWMY
amyloid nucleation score: inactive

VVSAGIAFPWTGLS
amyloid nucleation score: inactive

CSQNT
amyloid nucleation score: inactive

SEISWQVLCKNEDEYCHFWE
amyloid nucleation score: inactive

LGICGVRRSLMKRR
amyloid nucleation score: inactive

GTSAH
amyloid nucleation score: inactive

LYMGSRPFSVIVVRITVGSQ
amyloid nucleation score: inactive

ITSCRWVALKYLWSVFSLLI
amyloid nucleation score: inactive

NVCDRLLDKPHELSFSEKSV
amyloid nucleation score: inactive

DIVIFVEVNHWFLMGMSHKT
amyloid nucleation score: 0.999 ± 0.088

SCLHSSSFCKR
amyloid nucleation score: inactive

VDVYLDYDIAMQPGVYALWR
amyloid nucleation score: inactive

NDASVLRNSPELSESFRGKW
amyloid nucleation score: inactive

PVITSYSSIYVSCDIVW
amyloid nucleation score: inactive

ILKLQEQTSNGLAVSNESSC
amyloid nucleation score: inactive

AVVARGGVLVGTLCFLFWLS
amyloid nucleation score: inactive

ISINMRAGMDG
amyloid nucleation score: inactive

FMIAQGYHMLYLKHLCTSRN
amyloid nucleation score: inactive

TTCILYPYLWCLMIHMSASN
amyloid nucleation score: 0.891 ± 0.16

YIALLLLSRWDQTCKGARTG
amyloid nucleation score: 0.622 ± 0.18

VRLVGLCFYIAMSLPSSFFI
amyloid nucleation score: inactive

VCRDSVILLDLLGAMCVVYG
amyloid nucleation score: inactive

LPLVVIFQLSTYVRQWYA
amyloid nucleation score: 0.618 ± 0.28

GFEAPWA
amyloid nucleation score: inactive

KAGVRKRKAER
amyloid nucleation score: inactive

KGLMVNRELMGSWSRPGCSY
amyloid nucleation score: inactive

MTWGSNFSDNGYKLEIMCYQ
amyloid nucleation score: inactive

VHYGNGLRWLGSLVYMGGCI
amyloid nucleation score: inactive

SIFLDEIDFKIT
amyloid nucleation score: 0.409 ± 0.16

STWYSFDFRYFLDTIVCHMF
amyloid nucleation score: 1.68 ± 0.11

VDSWSRGQVSQLGRSQWADI
amyloid nucleation score: 0.68 ± 0.31

SVTWSHFGNWVRGAGLVMHR
amyloid nucleation score: 0.259 ± 0.39

NATIKIFTTIISDYQFGMR
amyloid nucleation score: 0.152 ± 0.3

RCKSGLNSMGRRFRYRIQQP
amyloid nucleation score: 0.809 ± 0.18

NCRGPCFKSKCSLIPRYTFV
amyloid nucleation score: inactive

IYLMVFNCMFEVTFRLSVES
amyloid nucleation score: inactive

SGRVSTDEKLVKFLRN
amyloid nucleation score: inactive

QFESSSFRYVAVCSVCAFSI
amyloid nucleation score: 1.73 ± 0.099

SRNFTRHILHDLHYAGILKA
amyloid nucleation score: inactive

YEGRSNSVRSK
amyloid nucleation score: inactive

FLRPV
amyloid nucleation score: inactive

INLGKTSIRSIDRNNVCMLG
amyloid nucleation score: inactive

VFFTHATVLSKSYFNLERLV
amyloid nucleation score: 0.426 ± 0.33

PEGPDLTLILAIKPKLSCRG
amyloid nucleation score: inactive

KLAVFYFVVLVFRGERISSC
amyloid nucleation score: inactive

RMFWRYWYSQEMGYDRAIKG
amyloid nucleation score: inactive

TQLHGDLYWLVRMRVWIVEI
amyloid nucleation score: inactive

LVTGNVYVF
amyloid nucleation score: inactive

CWSRMNSVDAIYK
amyloid nucleation score: inactive

HLLRCYMFIVDEVCWSVVAR
amyloid nucleation score: inactive

DNEEKLIGRSL
amyloid nucleation score: inactive

LSGFDFAL
amyloid nucleation score: inactive

WCCFSWKVLRHGLTSACGC
amyloid nucleation score: 1.31 ± 0.11

MTVTGPQYLPWGLRHNA
amyloid nucleation score: inactive

AFVKFSRTWSSVSSLCGFQA
amyloid nucleation score: inactive

WQLRQGDLGSHVRRFLQLYR
amyloid nucleation score: inactive

YQKFNKLRLRNLPHLYDFVL
amyloid nucleation score: inactive

NFVRRHWRWRGMSFSLVNSY
amyloid nucleation score: inactive

HLGFVEYAAKYTMVVCGRAV
amyloid nucleation score: inactive

DLLQVLPCVLDSYGARAVRC
amyloid nucleation score: inactive

VYFMCVQHWLVSGHPDPLNE
amyloid nucleation score: -0.246 ± 0.69

LMSAFSIRRGYCCVENSASR
amyloid nucleation score: inactive

SVYTGISLSKFHGSPLVRV
amyloid nucleation score: -0.408 ± 1.2

MILFKIEELHCQHVSHCG
amyloid nucleation score: inactive

SIVHGMA
amyloid nucleation score: inactive

LCPVGCFRCATGPFVKCDVY
amyloid nucleation score: inactive

CFDFSCVFLKEMQYGGETGS
amyloid nucleation score: 1.07 ± 0.12

SCTELFTPKGR
amyloid nucleation score: inactive

VVGKFSTADILSFR
amyloid nucleation score: inactive

YIDTW
amyloid nucleation score: inactive

CRWGNVIYFFTR
amyloid nucleation score: 1.45 ± 0.12

NVNWIRFDFHFVFV
amyloid nucleation score: 2 ± 0.071

FRSVTTVVNVEKVRVY
amyloid nucleation score: inactive

RELNQFSPRAENWWYSSHSV
amyloid nucleation score: inactive

GFSDLCQHYFQYLVK
amyloid nucleation score: inactive

LFDVKDRSTMVVVIPCFHGS
amyloid nucleation score: 2.23 ± 0.065

SMYVYPFELVSVDGRLVRTA
amyloid nucleation score: inactive

YWVSSYCIPMCGYQVWCVWG
amyloid nucleation score: inactive

SKSLMMDLCTYCHYLNVYRE
amyloid nucleation score: inactive

YDGRIGRYSSYIKKCF
amyloid nucleation score: inactive

GKNKQLS
amyloid nucleation score: inactive

TMYCLHLNIMSCWSNSTKKT
amyloid nucleation score: 2.57 ± 0.083

ISLVGFHVKLVFL
amyloid nucleation score: 2.11 ± 0.09

QLCLKGSPIVVVRCLRHNKI
amyloid nucleation score: inactive

NMFSGVG
amyloid nucleation score: inactive

CNCRKRLVWSFGYMNISMYL
amyloid nucleation score: inactive
